# ± gives the uncertainty stated by the source.
# Experiment: protein stability index of a GFP-peptide fusion (yeast GPS) (PSI 1-4); higher = more stable; sorted into four equal gates, so the index is relative within each strain
# Conditions: doa10∆
# How it was run: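 Yeast carrying a pooled library were grown to mid-log phase in leucine-free medium. Each library plasmid expresses Cherry and has a tiled 17-residue yeast protein peptide fused downstream of GFP. Cells were sorted into four equal gates by GFP/Cherry ratio, and plasmids from each gate were PCR-amplified, Illumina-sequenced and assigned to strains by barcode. Summing, across gates, the read frequency times the gate number gave each peptide's protein stability index.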
row,Sequence,protein stability index
1,YDRQLSSLFLDGLEKAA [FAS2],2.96 ± 0.084

# Same assay, conditions: pdr5∆
row,Sequence,protein stability index
1,VRAVSITSFGFGQKGGQ [FAS2],2.96 ± 0.23
2,VRCKDCGHRILLKARTK [RPC10],2.64 ± 0.11
3,VRDKLDEYQAAVEQRKK [DPB4],3.37 ± 0.066
4,VRDPWSIDFRTYRCSIK [SRB2],2.41 ± 0.12
5,VRIIKHTLDIINVLTDQ [RPS5],2.46 ± 0.059
6,VRIMKAKRNLPHTTLVN [CDC53],2.23 ± 0.07
7,VRKYDLNICRQCFREKA [RPS29B],2.67 ± 0.092
8,VRRRFARGMTSKPAGFM [RPS15],2.89 ± 0.077
9,VRSGVSKSAPSKKISNT [YAR002W/NUP60],3.25 ± 0.088
10,VRTDTTYPAGFMDVITL [RPS4A],2.57 ± 0.1
11,VRVRTTKIPQIGDKFAS [RPB2],2.68 ± 0.072
12,VSIRQNQYKLVFYQVTP [RPL22B],1.69 ± 0.051
13,VSKADILLSHHRASPAD [POP5],3.26 ± 0.16
14,VSKPAFSFGAKANEKKE [YJL041W/NSP1],2.78 ± 0.24
15,VSLLKKNWQNVGSLVVK [RPL1A],1.39 ± 0.056
16,VSNISCLTGTVAARMFH [ECM29],1.59 ± 0.039
17,VSSAKFSGKYLKYLTKK [RPL22B],2.52 ± 0.2
18,VSSPESEKNKRQSKSSG [ITC1],3.17 ± 0.052
19,VSSSSRHHRKTEKEEDA [ISW2],2.81 ± 0.057
20,VSVIAPESQGQHEQQKQ [YMR153W/NUP53],3.15 ± 0.097
21,VSVPVSGQKTNRQVMHK [SIR3],3.27 ± 0.14
22,VSYKDYSIFLENENILI [SMC1],2.81 ± 0.1
23,VTDDDRLWLKKVMEEEE [POP8],1.89 ± 0.07
24,VTEDGSIVTVVSSAKFS [RPL22B],3 ± 0.12
25,VTFSFFNPQDTEENIKG [RRP45],2.55 ± 0.08

row,Sequence,protein stability index
1,VTGGKKALVLFVPVPAL [RPS7B],2.03 ± 0.1
2,VTKLNVLVDEIKSQYYS [YIL149C/MLP2],2.33 ± 0.052
3,VTLYWNNAKLLTFMTCN [ESC2],2.09 ± 0.041
4,VTNSMRQTLAPYAVLSQ [YJR042W/NUP85],2.83 ± 0.054
5,VTRFTTWNGSPFDNSTE [YJL039C/NUP192],2.17 ± 0.052
6,VTRKQEDARRNPNPSSQ [RPC37],3.44 ± 0.094
7,VTTFLNWCAEPEHDERK [CYT1],3.39 ± 0.092
8,VTTFVFTGQGSQEQGMG [FAS1],3.49 ± 0.13
9,VTVDQYVNVAISIYNML [SSN2],1.88 ± 0.062
10,VTVSIKSRIVKVVGPRG [RPL9A],2.63 ± 0.048
11,VTYSRVSKKVDVRRLKK [BRN1],1.32 ± 0.14
12,VVDILSANGYLNATTAM [BRR2],3.3 ± 0.22
13,VVEKKTVGSSNGGLIHV [RPO21],3.07 ± 0.079
14,VVRAASSLASQDVDFYK [RRP6],2.04 ± 0.057
15,VVVDTVECAQHCIDYLR [SMC4],2.79 ± 0.22
16,VYRFVTENAIEEKVIER [ISW2],2.46 ± 0.14
17,WADIFAKALDGQNLKDL [RPP1A],3.31 ± 0.13
18,WAMQGISYLQEVQCTST [PCI8],3.06 ± 0.13
19,WAVISAFFREKGLVSQQ [RPB2],3.46 ± 0.1
20,WCCRSGSAADTQAIADI [PRE3],3.03 ± 0.099
21,WDGVIPTPAIIKPKPLW [RPO21],2.08 ± 0.092
22,WDHPVIAGVITRSKRLS [CSN12],2.82 ± 0.11
23,WDYLQLTVAMYINSDSV [RPO31],1.34 ± 0.086
24,WHGVHRNPARLMETLRT [RPB2],1.3 ± 0.066
25,WIWDMNVHGSLEPFLLM [BRR2],2.08 ± 0.078

row,Sequence,protein stability index
1,WKAPSSIVLDSEHFDVN [DIS3],3.47 ± 0.064
2,WKSPEWIQVFGLRTENV [MED6],2.22 ± 0.058
3,WLIEGKLYVDAVHSIIA [YDL116W/NUP84],1.32 ± 0.15
4,WLNGKMDSKGKITIGIQ [RGR1],3.47 ± 0.21
5,WPIVNSKVYFNNQSKEK [RPN12],2.78 ± 0.15
6,WQEYSSVFKGGMQNLIK [SRP14],3.44 ± 0.13
7,WQGKPVFIRHRTPHEIQ [RIP1],2.24 ± 0.28
8,WQVIITDDQGRVIDDNN [SIR3],3.43 ± 0.1
9,WRAHDSSIVAIDWASPE [YGL100W/SEH1],2.8 ± 0.1
10,WRFLQILRNGIDYLQRN [POP1],2.82 ± 0.054
11,WSCIVVENWIIDDKGVL [ITC1],2.72 ± 0.08
12,WTELCQREFKEIMEERN [NNF1],3.41 ± 0.16
13,WTRGTGLMSANNIIAEG [FAS2],2.85 ± 0.086
14,WVIRKQRRTNNSGVGSA [MED6],2.36 ± 0.14
15,WVLHRDLKPANIMVTID [SSN3],1.98 ± 0.14
16,WWTNSHHDGKLWNLNAY [PRP8],2.76 ± 0.14
17,YAKSEFDNVASVFMPLI [ECM29],2.8 ± 0.049
18,YALAAKDRFDIDEKSQF [RPN2],2.1 ± 0.13
19,YAQRIGSGAPVYLTAVL [HTA1],2.48 ± 0.072
20,YASLKLPNQIPGEYITT [YMR129W/POM152],2.19 ± 0.059
21,YDIVKFLTVSKLWAEII [GRR1],2.59 ± 0.038
22,YDKLPAGQNATVAVMSY [RET1],1.31 ± 0.046
23,YDLVILKSGLPLSGLLF [YMR129W/POM152],2.53 ± 0.13
24,YDPQRDKRFSGSLKLPN [RPL1A],3.33 ± 0.068

# — the supplement of paper PMC9732359
